This is an account of results in patent US20220298255A1 (SEATTLE CHILDREN S HOSPITAL D B A SEATTLE CHILDREN S …, published 2022).

For assay [1], the target named is T1, mouse E-cadherin on cells (endogenous on 4T1 and Py2T cells; expressed in colo205 cells) (mouse, UniProt P09803 157-884).
T1 construct: whole, on cells; also called endogenous mouse E-cadherin; mE-cadherin
T1 sequence (looked up): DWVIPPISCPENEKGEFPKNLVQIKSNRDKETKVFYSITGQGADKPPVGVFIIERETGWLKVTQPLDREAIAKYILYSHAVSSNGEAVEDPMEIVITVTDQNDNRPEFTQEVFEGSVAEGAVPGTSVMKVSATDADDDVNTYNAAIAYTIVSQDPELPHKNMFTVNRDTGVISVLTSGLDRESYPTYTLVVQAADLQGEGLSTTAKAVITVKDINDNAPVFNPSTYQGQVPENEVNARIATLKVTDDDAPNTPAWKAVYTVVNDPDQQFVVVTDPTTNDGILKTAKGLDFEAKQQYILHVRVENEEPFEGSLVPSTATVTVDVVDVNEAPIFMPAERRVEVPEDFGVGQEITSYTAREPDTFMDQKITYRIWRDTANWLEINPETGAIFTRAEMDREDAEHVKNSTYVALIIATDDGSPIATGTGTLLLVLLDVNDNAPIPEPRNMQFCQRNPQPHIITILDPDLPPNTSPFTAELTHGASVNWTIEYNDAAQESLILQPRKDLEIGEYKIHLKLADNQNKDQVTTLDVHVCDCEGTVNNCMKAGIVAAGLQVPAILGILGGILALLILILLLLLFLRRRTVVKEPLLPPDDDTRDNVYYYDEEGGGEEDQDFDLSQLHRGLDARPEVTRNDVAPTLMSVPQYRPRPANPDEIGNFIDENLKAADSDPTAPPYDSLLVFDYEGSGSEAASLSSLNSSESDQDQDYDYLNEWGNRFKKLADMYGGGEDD
Description: immunofluorescence staining of parental 4T1 cells, antibody at 1 µg/mL for 7 hrs.

In assay [2] the target is T2, mouse E-cadherin (form in the assay not stated) (mouse, UniProt P09803 157-709, limits assumed).
T2 construct: neither place states the form; also called the mouse E-cadherin
T2 sequence (looked up): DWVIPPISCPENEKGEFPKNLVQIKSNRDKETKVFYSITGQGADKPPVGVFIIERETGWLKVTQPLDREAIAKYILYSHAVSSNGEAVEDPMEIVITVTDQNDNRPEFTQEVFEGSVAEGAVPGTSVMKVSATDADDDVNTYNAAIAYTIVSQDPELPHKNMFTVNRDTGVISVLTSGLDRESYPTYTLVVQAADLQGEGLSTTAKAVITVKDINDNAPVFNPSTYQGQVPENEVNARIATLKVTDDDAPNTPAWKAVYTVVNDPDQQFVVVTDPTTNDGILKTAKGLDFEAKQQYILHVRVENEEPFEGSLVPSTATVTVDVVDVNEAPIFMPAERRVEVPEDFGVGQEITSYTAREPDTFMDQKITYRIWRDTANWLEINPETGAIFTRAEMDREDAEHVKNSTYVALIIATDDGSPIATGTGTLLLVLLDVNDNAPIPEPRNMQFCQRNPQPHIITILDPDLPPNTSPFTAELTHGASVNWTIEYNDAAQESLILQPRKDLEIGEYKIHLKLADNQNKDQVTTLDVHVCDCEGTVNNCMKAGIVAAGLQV
Put plainly: ELISA of hybridomas. For orientation: In an ELISA, binding on a coated surface is turned into a signal by an enzyme label.

Assay [3] deals with T2, mouse E-cadherin (form in the assay not …). Put plainly: not described.

B1: rabbit anti-mouse E-cad monoclonal antibody mAb-2_18-5 (antibody, mouse IgG1, V domains shown)
VH: EQLEESGGGLVKPGASLTLTCTASGFDLSTYFYMCWVRQAPGKGLEWIACIYVGSTGDTYYANWAKGRFTISKTSSTTVTLQMTSLTDADTATYFCARDIFATGINYYRALWGPGTLVTVSS
VL: AFELTQTPASVEAGVGGTVTIKCQASESINSWLSWYQQKPGQPPTLLIYSASTLASGVPSRFKGSRSGTQFTLTISDLECADAATYYCQSYYGTSTTAFGGGTEVVVK
notes: also called Whole IgG 18.5
Regarding B1, the binding result in assay [1] and in assay [2] was “binds” each time.

B2: mouse anti-human E-cad monoclonal antibody mAB-1_19A11 (antibody, V domains shown)
VH: QVQLKESGPGLVAPSQSLSITCTVSGFSLSRYGVHWVRQPPGKGLEWLGMMWGGGNTDYNSALKSRLSISKDNSKSQVFLKMNSLQTDDTAMYYCASSNYVLGYAMDYWGQGTSVTVSS
VL: DIVMTQSPSSLAMSVGQKVTMNCKSSQSLLNSSNQKNYLAWYQQKPGQSPKLLIYFTSTRGSGVPDRFIGSGSGTDFTLTISSVEAEDLADYFCQQHYRTPHTFGGGTKVEIK
notes: also called mAb 19A11
As to B2, the binding result in assay [3] was “no binding”.
